Source: US20130177556
Where two headings read alike, the source gives them in different places.

How the values were obtained:
[1] = molecular target: EGFR on A549 cells (Homo sapiens) (UniProt P00533)
[2] = molecular target: EGFR on A549 cells (Homo sapiens) (UniProt P00533); assay: cell_activity; settings: 2'-F pyrimidines (all C and U); inhibition of EGF-dependent EGFR phosphorylation in A549, 200 nM aptamer
[3] = molecular target: EGFR extracellular domain (EC-EGFR) (Homo sapiens) (UniProt P00533); assay: filter; settings: 2'-F pyrimidines (all C and U); PBS, 0.01% BSA, 37 C, 15 min; scrambled background subtracted

Sequence: GGGAGACAAGAAUAAACGCUCAACGACACGUUGCCAGCCGGAGCCUUAGUAACGUGCUUUGAUGUCGAUUCGACAGGAGGCUCACAACAGGC [CL4]
- Kd ([1]; 2'-F pyrimidines, Kd stated for full-length CL4, whole A549 cells implied): 46 nM

Sequence: GCCUUAGUAACGUGCUUUGAUGUCGAUUCGACAGGAGGC [CL4 42-81]
- activity [2]: 60 % inhibition
- Kd ([1]; 2'-F pyrimidines (all C and U), binding to whole A549 cells, radiolabelled aptamer): 38 nM
- Kd [3]: 10 nM
